According to ChEMBL document CHEMBL2074192, “Functional analysis and androgen-regulated expression of mouse organic anion transporting polypeptide 1 (Oatp1) in the kidney” (Biochim Biophys Acta, 2001):

Tests used:
[1] = substrate: C[C@]12CC[C@@H]3c4ccc(O)cc4CC[C@H]3[C@@H]1CC[C@@H]2O[C@@H]1O[C@H](C(=O)O)[C@@H](O)[C@H](O)[C@H]1O; assay: (§1) TP_TRANSPORTER: uptake in Xenopus laevis oocytes; format: functional, cell-based, Oocyte
[2] = substrate: [H][C@@]12CC=C3C[C@@H](OS(=O)(=O)O)CC[C@]3(C)[C@@]1([H])CC[C@]1(C)C(=O)CC[C@@]21[H]; assay: as §1; format: functional, cell-based, Oocyte

B1: Solute carrier organic anion transporter family member 1A1 (Mus musculus) (protein)
chain: MEETEKKVATQEGRFFSKMKVFLMSLTCAYLAKSLSGVYMNSMLTQIERQFGIPTSVVGFITGSFEIGNLLLIVFVSYFGRKLHRPIIIGVGCVVMGLGCFLMASPHFLMGRYKYETTISPTSNLSSNSFLCIENRTQTLKPTQDPTECVKEIKSLMWIYVLIGNTMRGIGETPIMPLGISYIEDFAKSENSPLYIGILEMGKIVGPIIGLLLGSFFARVYVDIGSVNTDDLTITPTDTRWVGAWWIGFLVCAGVNILTSIPFFFFPKTLPKKELQDNVDVTKYEKVEKHRERAKKENLGITKDFLPFMKSLCCNPIYMLFSLTSVLQINGFASTFTFLPKYLEQQYGKSTSEAVFLIGVYSLPPVCLGYLISGFIMKKFKITVKKAAYIAFGLSLSEYFIFLCNYLLTCDNFPVAGLTTSYKGVQHPLYGEKNVLADCNTRCSCLTDTWDPVCGDNGLAYMSACLAGCEKSVGTGTNMVFQNCSCIGSSGNSSAVLGLCKKGPECDNKLQYFLIKSVFSSFIFSLAAIPGYMVLLRCVKSEEKSIGVGLHAFFIRLLAGIPAPVYFGALIDRTCLHWGTLKCGQPGACRMYDINRFRHIYLGLPAAVRGSSFLPAVFILILMRKFHFPGDIHSPDTELAEMKLTEKESECTDVCRSPKVENDGELKTKL
Km [1]: 8.2 µM
Km [2]: 8.2 µM
